Patent publication US20250282872A1 (ANAPTYSBIO, published 2025)

Legend:
[1] = target: cynomolgus monkey BTLA on cells (cynomolgus monkey); experiment: flow cytometry dot plot, cynomolgus monkey lysed whole blood, CD3 (PerCP Cy5.5) against BTLA (APC), 33 nM antibody
[2] = target: T1, BTLA-ECD, purified recombinant (Example 19)
T1 sequence (Q7Z6A9 31-157, species assumed, looked up): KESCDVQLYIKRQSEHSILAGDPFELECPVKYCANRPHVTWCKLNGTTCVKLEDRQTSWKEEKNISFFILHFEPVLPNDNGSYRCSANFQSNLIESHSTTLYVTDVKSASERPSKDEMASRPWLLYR

[3] = target: β-galactosidase enzyme donor (ED)-tagged human BTLA on Jurkat cells (human, UniProt Q7Z6A9 31-289); experiment: cell-based or functional assay
[4] = target: T2, cynomolgus monkey BTLA on cells (cynomolgus monkey, UniProt A0A2K5W7M7 31-289); experiment: flow cytometry on cynomolgus monkey whole blood, staining of CD20+ B cells against CD3+ T cells
T2 construct: whole, on cells; also called 293c18 clone 1G5; BTLA on cynomolgus monkey peripheral blood T and B cells
T2 sequence: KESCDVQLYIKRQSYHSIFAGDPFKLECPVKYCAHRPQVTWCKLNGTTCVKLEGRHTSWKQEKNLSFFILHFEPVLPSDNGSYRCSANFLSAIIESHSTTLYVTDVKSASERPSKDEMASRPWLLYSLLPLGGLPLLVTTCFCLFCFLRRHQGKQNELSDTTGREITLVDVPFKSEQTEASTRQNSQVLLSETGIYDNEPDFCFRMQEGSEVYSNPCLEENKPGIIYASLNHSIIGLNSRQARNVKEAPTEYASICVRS
Protocol: Blood was then aliquoted into wells and incubated with the indicated concentrations of 6G3-AF647 (APE13766.02), or APC-Mouse Anti-Human CD272 (BTLA) reference antibody (clone J168-540; BD Biosciences) for 30 minutes at room temperature, in the dark. Following incubation, red blood cells were lysed for 10 minutes by addition of 2.0 ml diluted BD Pharm Lyse lysing solution (BD Biosciences), samples centrifuged at 200×g for 5 minutes, washed in FACS Buffer [Dulbecco's PBS, no calcium, no magnesium (Gibco/ThermoFisher Scientific), 25 mM HEPES, pH 7.2, 0.1% BSA, 0.1% sodium azide] and fixed in 4% paraformaldehyde (200 μl/sample) for 10 minutes at room temperature. Samples were washed twice in FACS Buffer and analyzed for fluorescence on a NovoCyte Quanteon flow cytometer (ACEA Biosciences, Inc.). Data were analyzed using NovoExpress Software (ACEA Biosciences, Inc.). Mean fluorescence intensity (MFI) values were graphed and fit with nonlinear regression analyses in GraphPad Prism (GraphPad Software, Inc.). MFI values for each anti-BTLA antibody on total CD3⁺ cells are shown in FIG. 5A; MFI values for each anti-BTLA antibody on total […] are shown in FIG. 5B. […] Binding of each anti-BTLA antibody to CD3⁻ cells in FIG. 5C and FIG. 5D (green cells in the bottom quadrants of each panel) reflects the binding to CD20+ B cells. […]

APC-Mouse Anti-Human CD272 (BTLA) reference antibody clone J168-540 (BD Biosciences)
% of cells in quadrant Q8-2 (CD3+, BTLA stain positive) [1]: 35.8%
% of cells in quadrant Q8-4 (CD3-, BTLA stain positive) [1]: 28%
Total BTLA (% of cells stained) [1]: 63.9%

B1: Proteinase 3 (PR3), purified recombinant (protein)
chain: IVGGHEAQPHSRPYMASLQMRGNPGSHFCGGTLIHPSFVLTAAHCLRDIPQRLVNVVLGAHNVRTQEPTQQHFSVAQVFLNNYDAENKLNDVLLIQLSSPANLSASVATVQLPQQDQPVPHGTQCLAMGWGRVGAHDPPAQVLQELNVTVVTFFCRPHNICTFVPRRKAGICFGDSGGPLICDGIIQGIDSFVIWGCATRLFPDFFTRVALYVDWIRSTLR
proteolytic cleavage after co-incubation for up to 60 minutes (gel lanes) [2]: soluble BLTA-ECD was cleaved into multiple smaller fragments

B2: 6G3 IgG4 anti-BTLA antibody (antibody, V domains shown)
VH: QVQLVQSGAEVKKPGSSVKVSCKASGYVFSTSWMNWVRQAPGQGLEWMGRIYPGDADTNYVGKFKGRVTITADKSTTTAYMELSSLRSEDTAVYFCAKSGTFNFGNYRWYFDVWGKGTTVTVSS
VL: AIQLTQSPSSLSASVGDRVTITCRVSENIYSHLAWYQQKPGKAPKLLIYAATNLALGVPSRFSGSGSGTDYTLTISSLQPEDFATYYCQLFWGPPLTFGGGTKVEIKR
notes: Humanized, IgG4; also called APE10840; APE10840.03
SHP2 recruitment PathHunter Jurkat BTLA signaling assay with U-2 OS hFcγRIa cells, EC50 [3]: 0.0093 µg/mL
SHP2 recruitment PathHunter Jurkat BTLA signaling assay, soluble antibody, EC50 [3]: 0.125 µg/mL
fold change of agonist potency with against without cell-associated FcγRIa [3]: ~13 fold
MFI on B cells relative to MFI on T cells [4]: ~9 fold
